Measurements taken from patent US11499162B2, “Plants having increased tolerance to herbicides” (BASF SE, priority 2016, dated 2022).
Where a chain is given by its changes, count along the chain named. In names and notes the source's numbering stands.

B1: Q96A: mutated TriA variant of SEQ ID NO: 2 (protein)
chain: MQTLSIQHGTLVTMDQYRRVLGDSWVHVQDGRIVALGVHAESVPPPADRVIDARGKVVLPGFINAHTHVNQILLRGGPSHGRQLYDWLFNVLYPGAKAMRPEDVAVAVRLYCAEAVRSGITTINDNADSAIYPGNIEAAMAVYGEVGVRVVYARMFFDRMDGRIQGYVDALKARSPQVELCSIMEETAVAKDRITALSDQYHGTAGGRISVWPAPAITPAVTVEGMRWAQAFARDRAVMWTLHMAESDHDERLHWMSPAEYMECYGLLDERLQVAHCVYFDRKDVRLLHRHNVKVASQVVSNAYLGSGVAPVPEMVERGMAVGIGTDDGNCNDSVNMIGDMKFMAHIHRAVHRDADVLTPEKILEMATIDGARSLGMDHEIGSIETGKRADLILLDLRHPQTTPHHHLAATIVFQAYGNEVDTVLIDGNVVMENRRLSFLPPERELAFLEEAQSRATAILQRANMVANPAWRSL
modifications: Pseudomonas
B2: D128N: mutated TriA variant of SEQ ID NO: 2 (protein)
chain: B1 chain with A96Q, D128N
modifications: Pseudomonas
B3: D128S: mutated TriA variant of SEQ ID NO: 2 (protein)
chain: B1 chain with A96Q, D128S
modifications: Pseudomonas
B4: N126M: mutated TriA variant of SEQ ID NO: 2 (protein)
chain: B1 chain with A96Q, N126M
modifications: Pseudomonas
B5: N126A: mutated TriA variant of SEQ ID NO: 2 (protein)
chain: B1 chain with A96Q, N126A
modifications: Pseudomonas
B6: M155G: mutated TriA variant of SEQ ID NO: 2 (protein)
chain: B1 chain with A96Q, M155G
modifications: Pseudomonas
B7: D128A: mutated TriA variant of SEQ ID NO: 2 (protein)
chain: B1 chain with A96Q, D128A
modifications: Pseudomonas
B8: N126S: mutated TriA variant of SEQ ID NO: 2 (protein)
chain: B1 chain with A96Q, N126S
modifications: Pseudomonas
B9: N126D: mutated TriA variant of SEQ ID NO: 2 (protein)
chain: B1 chain with A96Q, N126D
modifications: Pseudomonas
B10: Q96N: mutated TriA variant of SEQ ID NO: 2 (protein)
chain: B1 chain with A96N
modifications: Pseudomonas

Assay type: biochemical
Settings: pH 7.2
Method in brief: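 E. coli resting cells expressing His-tagged TriA incubated with azines, melamine or atrazine. Enzyme in 25 mM sodium phosphate pH 7.2 at 30 °C, substrate 1–10 nM. Loss of parent and formation of OH-metabolite followed by UPLC-HR-MS; % degradation relative to empty-vector cells.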

Molecule	Degradation in % of 6-cyclopentyl-N4-(2,3,4,5,6-pentafluorophenyl)-1,3,5-triazine-2,4-diamine	Degradation in % of Melamine
B1	0%	0%
B2	2%	0%
B3	0%	0%
B4	0%	3%
B5	4%	2%
B6	0%	4%
B7	5%	3%
B8	1%	2%
B9	0%	0%
B10	2%	2%
